# From PMC7326497, “Membrane characteristics tune activities of endosomal and autophagic human VPS34 complexes” (eLife, 2020)
# B1: human UVRAG, specific subunit of complex II (natural protein, UniProt Q9P2Y5 1-699, looked up)
# chain: MSASASVGGPVPQPPPGPAAALPPGSAARALHVELPSQQRRLRHLRNIAARNIVNRNGHQLLDTYFTLHLCSTEKIYKEFYRSEVIKNSLNPTWRSLDFGIMPDRLDTSVSCFVVKIWGGKENIYQLLIEWKVCLDGLKYLGQQIHARNQNEIIFGLNDGYYGAPFEHKGYSNAQKTILLQVDQNCVRNSYDVFSLLRLHRAQCAIKQTQVTVQKIGKEIEEKLRLTSTSNELKKKSECLQLKILVLQNELERQKKALGREVALLHKQQIALQDKGSAFSAEHLKLQLQKESLNELRKECTAKRELFLKTNAQLTIRCRQLLSELSYIYPIDLNEHKDYFVCGVKLPNSEDFQAKDDGSIAVALGYTAHLVSMISFFLQVPLRYPIIHKGSRSTIKDNINDKLTEKEREFPLYPKGGEKLQFDYGVYLLNKNIAQLRYQHGLGTPDLRQTLPNLKNFMEHGLMVRCDRHHTSSAIPVPKRQSSIFGGADVGFSGGIPSPDKGHRKRASSENERLQYKTPPPSYNSALAQPVTTVPSMGETERKITSLSSSLDTSLDFSKENKKKGEDLVGSLNGGHANVHPSQEQGEALSGHRATVNGTLLPSEQAGSASVQLPGEFHPVSEAELCCTVEQAEEIIGLEATGFASGDQLEAFNCIPVDSAVAVECDEQVLGEFEEFSRRIYALNENVSSFRRPRRSSDK
# notes: UVRAG, human; see Supplementary file 6; also called HsUVRAG; not shown: ZZ (only in pYO1018 and pYO1023)
# Molecular target: T1, human VPS15, subunit of complexes I and II (human, UniProt Q99570 1-1358)
# T1 construct: VPS15, human; expressed as HsVPS15-3xTEV-ZZ from the plasmid HsVPS34 + HsVPS15-3xTEV-ZZ; A 3xTEV site lies between VPS15 and ZZ; whether the tag was cut off is told only in Ohashi et al., 2016; The printed theoretical masses fit tag-free whole chains (my reckoning); also called HsVPS15; source: Expi293 cells, transfected, co-expressed with the other subunits, purified as a complex (method of …)
# Assay: SEC-MALS; purified, co-expressed human complex II at 0.8 mg/mL; Superose 6 10/300, 0.5 mL/min; measured 384 kDa against 386 kDa theoretical
# Settings: both partners purified
# T1 sequence (Q99570 whole entry, one chain of several): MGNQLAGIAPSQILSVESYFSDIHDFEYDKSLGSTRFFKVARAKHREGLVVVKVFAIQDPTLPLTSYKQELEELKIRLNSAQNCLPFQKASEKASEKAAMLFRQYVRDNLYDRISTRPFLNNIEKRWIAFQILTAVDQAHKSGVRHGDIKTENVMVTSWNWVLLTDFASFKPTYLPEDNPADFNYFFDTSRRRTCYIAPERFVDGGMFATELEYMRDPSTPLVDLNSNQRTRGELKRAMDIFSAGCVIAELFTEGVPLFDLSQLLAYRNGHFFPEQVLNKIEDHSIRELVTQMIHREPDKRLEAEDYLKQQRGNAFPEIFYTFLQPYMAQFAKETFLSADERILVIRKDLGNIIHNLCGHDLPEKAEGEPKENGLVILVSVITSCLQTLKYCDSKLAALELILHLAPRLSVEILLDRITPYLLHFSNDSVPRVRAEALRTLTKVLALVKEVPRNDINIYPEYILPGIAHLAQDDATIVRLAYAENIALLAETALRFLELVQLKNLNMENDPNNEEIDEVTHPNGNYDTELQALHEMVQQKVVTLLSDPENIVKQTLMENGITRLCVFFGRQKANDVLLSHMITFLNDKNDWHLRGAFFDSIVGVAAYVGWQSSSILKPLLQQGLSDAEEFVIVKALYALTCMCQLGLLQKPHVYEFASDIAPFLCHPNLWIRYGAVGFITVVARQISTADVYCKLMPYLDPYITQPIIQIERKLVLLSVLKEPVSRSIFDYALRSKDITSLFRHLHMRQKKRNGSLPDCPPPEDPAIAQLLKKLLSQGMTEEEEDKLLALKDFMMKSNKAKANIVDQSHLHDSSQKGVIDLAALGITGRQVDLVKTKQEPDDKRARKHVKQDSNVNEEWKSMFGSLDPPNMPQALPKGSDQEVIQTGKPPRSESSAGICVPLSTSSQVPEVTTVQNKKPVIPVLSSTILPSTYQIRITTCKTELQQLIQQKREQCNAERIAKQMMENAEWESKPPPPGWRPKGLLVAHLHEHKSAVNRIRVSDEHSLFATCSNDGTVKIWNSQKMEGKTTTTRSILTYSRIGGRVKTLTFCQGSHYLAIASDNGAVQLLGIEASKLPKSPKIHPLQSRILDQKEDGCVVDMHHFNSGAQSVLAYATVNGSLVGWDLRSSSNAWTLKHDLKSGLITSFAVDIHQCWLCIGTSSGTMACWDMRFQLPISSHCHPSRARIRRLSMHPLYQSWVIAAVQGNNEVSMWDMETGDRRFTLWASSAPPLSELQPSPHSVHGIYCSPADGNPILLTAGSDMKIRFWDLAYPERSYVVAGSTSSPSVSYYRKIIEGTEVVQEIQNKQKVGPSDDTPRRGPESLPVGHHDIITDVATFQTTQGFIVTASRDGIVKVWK
binder,measurement,value
B1,stoichiometry N,1
